System: Abp1 PPIs
Assay: DHFR-PCA of Abp1 SH3-swapped baits (Fig. 2B-D, S2C, S2F);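 on Protein-protein interaction distance between Abp1 SH3-swapped baits, to ABP1: Euclidean distance between DHFR-PCA score profiles of the baits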;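 on Protein-protein interaction distance between Abp1 SH3-swapped baits, to BEM1-2: Euclidean distance between DHFR-PCA score profiles of the baits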;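 on Protein-protein interaction distance between Abp1 SH3-swapped baits, to BOI1: Euclidean distance between DHFR-PCA score profiles of the baits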;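 on Protein-protein interaction distance between Abp1 SH3-swapped baits, to BZZ1-1: Euclidean distance between DHFR-PCA score profiles of the baits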
Assay type: cell-based, Saccharomyces cerevisiae
Outline: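 Interactions were scored by DHFR protein-fragment complementation. DHFR F[1,2]-tagged Abp1 strains, whose SH3 was swapped for yeast or human ortholog domains, were crossed on YPD at 30 °C for 48 h with a 1536-format array of 575 prey-DHFR F[3] strains and 40 negatives, giving four replicates per pair. PCA selection lasted 4 days after double diploid selection.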

[1] = number of PPIs, difference, Abp1 SH3-swapped with the listed SH3, Fig2D,S2F

B1: PEX13 (protein, UniProt P80667 1-386, looked up)
Peroxisomal membrane protein …: MSSTAVPRPKPWETSASLEEPQRNAQSLSAMMTSNQQDSRPTEESNNSNSASESAPEVLPRPAALNSSGTYGESNTIPGIYGNSNYGIPYDNNPYSMNSIYGNSIGRYGYGGSYYGNNYGSFYGGGYGAGAGYGMNNGSGLGESTKATFQLIESLIGAVTGFAQMLESTYMATHNSFFTMISVAEQFGNLKEMLGSFFGIFAIMKFLKKILYRATKGRLGIPPKNFAESEGSKNKLIEDFQKFNDSGTINSNEKATRRKISWKPLLFFLMAVFGFPYLLNKFITKLQTSGTIRASQGNGSEPIDPSKLEFARALYDFVPENPEMEVALKKGDLMAILSKKDPLGRDSDWWKVRTKNGNIGYIPYNYIEIIKRRKKIEHVDDETRTH
Protein-protein interaction distance between Abp1 SH3-swapped baits, to ABP1 (Abp1 bait with swapped SH3, distance to bait with ABP1 SH3, sheet Fig2C): 10.96 | Protein-protein interaction distance between Abp1 SH3-swapped baits, to BBC1 (distance to Abp1 bait with BBC1 SH3, sheet Fig2C): 10.86 | Protein-protein interaction distance between Abp1 SH3-swapped baits, to BEM1-1 (distance to Abp1 bait with BEM1-1 SH3, sheet Fig2C): 16.62 | Protein-protein interaction distance between Abp1 SH3-swapped baits, to BEM1-2 (distance to Abp1 bait with BEM1-2 SH3, sheet Fig2C): 35.19 | Protein-protein interaction distance between Abp1 SH3-swapped baits, to BOI1 (distance to Abp1 bait with BOI1 SH3, sheet Fig2C): 13.22 | Protein-protein interaction distance between Abp1 SH3-swapped baits, to BOI2 (distance to Abp1 bait with BOI2 SH3, sheet Fig2C): 16.99 | Protein-protein interaction distance between Abp1 SH3-swapped baits, to BUD14 (distance to Abp1 bait with BUD14 SH3, sheet Fig2C): 19.91 | Protein-protein interaction distance between Abp1 SH3-swapped baits, to BZZ1-1 (distance to Abp1 bait with BZZ1-1 SH3, sheet Fig2C): 7.297 | Protein-protein interaction distance between Abp1 SH3-swapped baits, to BZZ1-2 (distance to Abp1 bait with BZZ1-2 SH3, sheet Fig2C): 13.09 | Protein-protein interaction distance between Abp1 SH3-swapped baits, to CDC25 (distance to Abp1 bait with CDC25 SH3, sheet Fig2C): 29.16 | Protein-protein interaction distance between Abp1 SH3-swapped baits, to CTTN (distance to Abp1 bait with CTTN SH3, sheet Fig2C): 14.16 | Protein-protein interaction distance between Abp1 SH3-swapped baits, to CYK3 (distance to Abp1 bait with CYK3 SH3, sheet Fig2C): 29.86 | Protein-protein interaction distance between Abp1 SH3-swapped baits, to DBNL (distance to Abp1 bait with DBNL SH3, sheet Fig2C): 7.699 | Protein-protein interaction distance between Abp1 SH3-swapped baits, to FUS1 (distance to Abp1 bait with FUS1 SH3, sheet Fig2C): 21.37 | Protein-protein interaction distance between Abp1 SH3-swapped baits, to HCLS1 (distance to Abp1 bait with HCLS1 SH3, sheet Fig2C): 8.5 | Protein-protein interaction distance between Abp1 SH3-swapped baits, to HOF1 (distance to Abp1 bait with HOF1 SH3, sheet Fig2C): 33.79 | Protein-protein interaction distance between Abp1 SH3-swapped baits, to HSE1 (distance to Abp1 bait with HSE1 SH3, sheet Fig2C): 8.715 | Protein-protein interaction distance between Abp1 SH3-swapped baits, to LSB1 (distance to Abp1 bait with LSB1 SH3, sheet Fig2C): 6.728 | Protein-protein interaction distance between Abp1 SH3-swapped baits, to LSB3 (distance to Abp1 bait with LSB3 SH3, sheet Fig2C): 7.361 | Protein-protein interaction distance between Abp1 SH3-swapped baits, to MYO3 (distance to Abp1 bait with MYO3 SH3, sheet Fig2C): 8.874 | Protein-protein interaction distance between Abp1 SH3-swapped baits, to MYO5 (distance to Abp1 bait with MYO5 SH3, sheet Fig2C): 7.969 | Protein-protein interaction distance between Abp1 SH3-swapped baits, to NBP2 (distance to Abp1 bait with NBP2 SH3, sheet Fig2C): 19.13 | Protein-protein interaction distance between Abp1 SH3-swapped baits, to PEX13 (distance to Abp1 bait with PEX13 SH3, sheet Fig2C): 0.00 | Protein-protein interaction distance between Abp1 SH3-swapped baits, to PIN3 (distance to Abp1 bait with PIN3 SH3, sheet Fig2C): 5.433 | Protein-protein interaction distance between Abp1 SH3-swapped baits, to RVS167 (distance to Abp1 bait with RVS167 SH3, sheet Fig2C): 4.587 | Protein-protein interaction distance between Abp1 SH3-swapped baits, to SDC25 (distance to Abp1 bait with SDC25 SH3, sheet Fig2C): 35.86 | Protein-protein interaction distance between Abp1 SH3-swapped baits, to SHO1 (distance to Abp1 bait with SHO1 SH3, sheet Fig2C): 8.672 | Protein-protein interaction distance between Abp1 SH3-swapped baits, to SLA1-1 (distance to Abp1 bait with SLA1-1 SH3, sheet Fig2C): 31.78 | Protein-protein interaction distance between Abp1 SH3-swapped baits, to SLA1-2 (distance to Abp1 bait with SLA1-2 SH3, sheet Fig2C): 21.86 | Protein-protein interaction distance between Abp1 SH3-swapped baits, to SLA1-3 (distance to Abp1 bait with SLA1-3 SH3, sheet Fig2C): 6.985 | Protein-protein interaction distance between Abp1 SH3-swapped baits, to YSC84 (distance to Abp1 bait with YSC84 SH3, sheet Fig2C): 7.848 | PPIs gained by Abp1 - SH3-dependent PPIs gained by Abp1 [1]: 23 | SH3-dependent PPIs - SH3-dependent PPIs gained by Abp1 [1]: 0 | SH3-dependent PPIs gained by Abp1 (number of PPIs, Abp1 SH3-swapped with the listed SH3, DHFR-PCA, Fig2D,S2F): 1
